# From the Human Domainome abundance scans (Beltran et al. 2025)
# ± gives the uncertainty stated by the source.
# B1: Tripartite motif-containing protein 6, residues 93 to 134; numbered along this chain, Q9C030 (parent)
# chain: KAVLCADHGEKLQLFCQEDGKVICWLCERSQEHRGHHTFLVE
# Variants of: B1
# Test: abundance fitness (aPCA) (normalised: wild type 0, dead -1); higher = more abundant; growth selection in yeast, the domain comes from the species named
# Conditions: Homo sapiens
row,Variant,abundance fitness
1,KAVLCADHGEKLILFCQEDGKVICWLCERSQEHRGHHTFLVE [Q13I],-0.086 ± 0.22
2,KAVLCADHGEKLRLFCQEDGKVICWLCERSQEHRGHHTFLVE [Q13R],-0.135 ± 0.047
3,KAVLCADHGEKLMLFCQEDGKVICWLCERSQEHRGHHTFLVE [Q13M],-0.274 ± 0.17
4,KAVLCADHGEKLGLFCQEDGKVICWLCERSQEHRGHHTFLVE [Q13G],-0.071 ± 0.045
5,KAVLCADHGEKLSLFCQEDGKVICWLCERSQEHRGHHTFLVE [Q13S],0.058 ± 0.045
6,KAVLCADHGEKLYLFCQEDGKVICWLCERSQEHRGHHTFLVE [Q13Y],-0.217 ± 0.17
7,KAVLCADHGEKLALFCQEDGKVICWLCERSQEHRGHHTFLVE [Q13A],0.004 ± 0.052
8,KAVLCADHGEKLTLFCQEDGKVICWLCERSQEHRGHHTFLVE [Q13T],0.124 ± 0.054
9,KAVLCADHGEKLELFCQEDGKVICWLCERSQEHRGHHTFLVE [Q13E],0.142 ± 0.062
10,KAVLCADHGEKLVLFCQEDGKVICWLCERSQEHRGHHTFLVE [Q13V],-0.148 ± 0.053
11,KAVLCADHGEKLKLFCQEDGKVICWLCERSQEHRGHHTFLVE [Q13K],0.128 ± 0.11
12,KAVLCADHGEKLPLFCQEDGKVICWLCERSQEHRGHHTFLVE [Q13P],-0.256 ± 0.048
13,KAVLCADHGEKLDLFCQEDGKVICWLCERSQEHRGHHTFLVE [Q13D],-0.109 ± 0.33
14,KAVLCADHGEKLNLFCQEDGKVICWLCERSQEHRGHHTFLVE [Q13N],0.21 ± 0.2
15,KAVLCADHGEKKQLFCQEDGKVICWLCERSQEHRGHHTFLVE [L12K],-0.004 ± 0.086
16,KAVLCADHGEKAQLFCQEDGKVICWLCERSQEHRGHHTFLVE [L12A],0.204 ± 0.048
17,KAVLCADHGEKGQLFCQEDGKVICWLCERSQEHRGHHTFLVE [L12G],0.117 ± 0.039
18,KAVLCADHGEKRQLFCQEDGKVICWLCERSQEHRGHHTFLVE [L12R],0.05 ± 0.041
19,KAVLCADHGEKIQLFCQEDGKVICWLCERSQEHRGHHTFLVE [L12I],-0.231 ± 0.16
20,KAVLCADHGEKTQLFCQEDGKVICWLCERSQEHRGHHTFLVE [L12T],-0.084 ± 0.061

row,Variant,abundance fitness
1,KAVLCADHGEKPQLFCQEDGKVICWLCERSQEHRGHHTFLVE [L12P],0.151 ± 0.059
2,KAVLCADHGEKNQLFCQEDGKVICWLCERSQEHRGHHTFLVE [L12N],0.381 ± 0.14
3,KAVLCADHGEKCQLFCQEDGKVICWLCERSQEHRGHHTFLVE [L12C],0.092 ± 0.077
4,KAVLCADHGEKMQLFCQEDGKVICWLCERSQEHRGHHTFLVE [L12M],0.195 ± 0.075
5,KAVLCADHGEKQQLFCQEDGKVICWLCERSQEHRGHHTFLVE [L12Q],-0.008 ± 0.058
6,KAVLCADHGEKEQLFCQEDGKVICWLCERSQEHRGHHTFLVE [L12E],-0.109 ± 0.053
7,KAVLCADHGEKVQLFCQEDGKVICWLCERSQEHRGHHTFLVE [L12V],-0.06 ± 0.05
8,KAVLCADHGEKFQLFCQEDGKVICWLCERSQEHRGHHTFLVE [L12F],-0.11 ± 0.13
9,KAVLCADHGEKSQLFCQEDGKVICWLCERSQEHRGHHTFLVE [L12S],0.202 ± 0.058
10,KAVLCADHGEKLQLFCQEDDKVICWLCERSQEHRGHHTFLVE [G20D],0.202 ± 0.065
11,KAVLCADHGEKLQLFCQEDAKVICWLCERSQEHRGHHTFLVE [G20A],-0.036 ± 0.064
12,KAVLCADHGEKLQLFCQEDKKVICWLCERSQEHRGHHTFLVE [G20K],-0.284 ± 0.41
13,KAVLCADHGEKLQLFCQEDHKVICWLCERSQEHRGHHTFLVE [G20H],-0.225 ± 0.12
14,KAVLCADHGEKLQLFCQEDEKVICWLCERSQEHRGHHTFLVE [G20E],0.103 ± 0.087
15,KAVLCADHGEKLQLFCLEDGKVICWLCERSQEHRGHHTFLVE [Q17L],-0.364 ± 0.086
16,KAVLCADHGEKLQLFCWEDGKVICWLCERSQEHRGHHTFLVE [Q17W],-0.335 ± 0.092
17,KAVLCADHGEKLQLFCPEDGKVICWLCERSQEHRGHHTFLVE [Q17P],-0.297 ± 0.11
18,KAVLCADHGEKLQLFCAEDGKVICWLCERSQEHRGHHTFLVE [Q17A],-0.109 ± 0.053
19,KAVLCADHGEKLQLFCKEDGKVICWLCERSQEHRGHHTFLVE [Q17K],0.248 ± 0.1
20,KAVLCADHGEKLQLFCFEDGKVICWLCERSQEHRGHHTFLVE [Q17F],-0.512 ± 0.15

row,Variant,abundance fitness
1,KAVLCADHGEKLQLFCYEDGKVICWLCERSQEHRGHHTFLVE [Q17Y],-0.406 ± 0.11
2,KAVLCADHGEKLQLFCEEDGKVICWLCERSQEHRGHHTFLVE [Q17E],0.053 ± 0.051
3,KAVLCADHGEKLQLFCREDGKVICWLCERSQEHRGHHTFLVE [Q17R],-0.043 ± 0.05
4,KAVLCADHGEKLQLFCMEDGKVICWLCERSQEHRGHHTFLVE [Q17M],-0.605 ± 0.18
5,KAVLCADHGEKLQLFCVEDGKVICWLCERSQEHRGHHTFLVE [Q17V],-0.373 ± 0.092
6,KAVLCADHGEKLQLFCSEDGKVICWLCERSQEHRGHHTFLVE [Q17S],-0.316 ± 0.1
7,KAVLCADHGEKLQLFCCEDGKVICWLCERSQEHRGHHTFLVE [Q17C],-0.024 ± 0.063
8,KAVLCADHGEKLQLFCTEDGKVICWLCERSQEHRGHHTFLVE [Q17T],-0.086 ± 0.07
9,KAVLCADHGEKLQLFCHEDGKVICWLCERSQEHRGHHTFLVE [Q17H],-0.235 ± 0.14
10,KAVLCADHGEKLQLFCIEDGKVICWLCERSQEHRGHHTFLVE [Q17I],0.376 ± 0.25
11,KAVLCADHGEKLQLFCGEDGKVICWLCERSQEHRGHHTFLVE [Q17G],-0.341 ± 0.046
12,KAVLCADHGEKLQLFWQEDGKVICWLCERSQEHRGHHTFLVE [C16W],-0.802 ± 0.083
13,KAVLCADHGEKLQLFKQEDGKVICWLCERSQEHRGHHTFLVE [C16K],-0.275 ± 0.063
14,KAVLCADHGEKLQLFTQEDGKVICWLCERSQEHRGHHTFLVE [C16T],-0.747 ± 0.087
15,KAVLCADHGEKLQLFEQEDGKVICWLCERSQEHRGHHTFLVE [C16E],-0.174 ± 0.05
16,KAVLCADHGEKLQLFDQEDGKVICWLCERSQEHRGHHTFLVE [C16D],-0.218 ± 0.055
17,KAVLCADHGEKLQLFNQEDGKVICWLCERSQEHRGHHTFLVE [C16N],-0.298 ± 0.061
18,KAVLCADHGEKLQLFVQEDGKVICWLCERSQEHRGHHTFLVE [C16V],-0.451 ± 0.051
19,KAVLCADHGEKLQLFGQEDGKVICWLCERSQEHRGHHTFLVE [C16G],-0.304 ± 0.038
20,KAVLCADHGEKLQLFHQEDGKVICWLCERSQEHRGHHTFLVE [C16H],-0.337 ± 0.078
